From the RNAGym collection of RNA variant scans (doi:10.1093/nar/gkz1192) come the findings set out here.

To fix the notation:
B1: CPEB3 Ribozyme (parent)
chain: UAACAGGGGGCCACAGCAGAAGCGUUCACGUCGCAGCCCCUGUCAGAUUCUGGUGAAUCUGCGAAUUCUGCUGUAUAUCUC

The variants in the data set derive from B1. Put plainly: self-cleavage, relative activity (ratio to wild type); higher = more cleavage; in vitro, sequencing. The procedure, abridged:
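CPEB3 self-cleaving ribozyme mutant libraries were made by rounds of error-prone PCR, barcoded, and transcribed in vitro with T7 RNA polymerase for 5 hours at 37°C. Cleavage occurred during transcription and a 15 min DNase I step before EDTA stop. RNAs were reverse transcribed with template switching and Illumina-sequenced, with DNA sequencing mapping barcodes to variants. Relative activity is the variant's cleaved/total read fraction divided by wild type's (minimum 5 reads), averaged across three batches.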
For G8A C71U, the self-cleavage turned out to be 0.21. C23G A45G: the self-cleavage amounted to 0.21. For the variant C23U U26C, the self-cleavage amounted to 0.2.

Consider A20G A75G, for which the self-cleavage amounted to 0.81.

Regarding U41A U48G, the self-cleavage was 0.37. Then A5U U54C, with 1.09; and U60A A65U, with 0.21.

For A21G C32A, the self-cleavage turned out to be 0.23. With A3U U31C the figure was 1.01; with A2U U67A, 0.49; with U1C A35G, 1.24. Turning to U60A U74A, the self-cleavage was 0.75. With U41G U69A the figure was 0.36; with G52U G61A, 1.02. With A47C A75U the figure was 0.3. Then A5U A65G, with 0.55; and G19U U72A, with 0.32; and C23G A65U, with 0.22. For G10U C37A, the self-cleavage came out at 0.72.

On to C12A U69A, for which the self-cleavage stood at 0.7. Then U54C A56C, with 0.38; and U49C U72C, with 0.36; and A20G A45G, with 0.61. Then C23U C27U, with 0.31; and U60G A65G, with 0.24. Then U26C U78A, with 0.51; and A45U U74A, with 1.03; and C4A U80C, with 1.11. For the variant C39G A64G, the self-cleavage turned out to be 0.38. As to G6C U48C, the self-cleavage was 0.47. In the case of G63C C79A, the self-cleavage was 1.09. Consider A21U C81U, for which the self-cleavage amounted to 0.29. C11A A65G: the self-cleavage was 0.26. Then A3U U43C, with 0.77; and A2G A47C, with 0.29. As to U41C U67G, the self-cleavage stood at 0.3. U31G U74G: the self-cleavage was 0.99.

In the case of A65C C79G, the self-cleavage stood at 0.14. With C39A U49A the figure was 0.23. Take U41C U48C: the self-cleavage amounted to 0.71.

Turning to A18C U43A, the self-cleavage turned out to be 0.64. Regarding U54A U78C, the self-cleavage came to 1.05.

Consider G7C U80A, for which the self-cleavage came out at 0.37.

A28U G63A: the self-cleavage was 0.62. Then A28U G30U, with 0.2; and A15G C27U, with 0.27; and U1C G9A, with 0.43. With U76A U78C the figure was 1.1. With G10C A64U the figure was 0.15; with C62A U74A, 0.18; with G10A U25G, 0.14. For the variant A13G U67A, the self-cleavage is 0.43.

Turning to G9A U58A, the self-cleavage was found to be 0.07.

Regarding G6A A20U, the self-cleavage is 0.07. With A45G U76G the figure was 0.97; with C11G A13U, 0.75. Consider A18G G33A, for which the self-cleavage is 0.23. For C32A C34G, the self-cleavage is 0.44.

As for A21U U80A, the self-cleavage is 0.44. With C23G U74C the figure was 0.41; with A28G A45G, 0.4.

For the variant U54G U72G, the self-cleavage amounted to 0.93.

On to U54G U72C, for which the self-cleavage turned out to be 1.16. For U60G U78C, the self-cleavage stood at 0.17. With C14U G22C the figure was 0.18; with G42A U60C, 0.34. For the variant U41G U72G, the self-cleavage was found to be 0.41.

Turning to U66G U78C, the self-cleavage is 0.41.

As to A47C U78A, the self-cleavage came out at 0.51.

Turning to A57G U66C, the self-cleavage was 0.4.

For U1A C50A, the self-cleavage was 0.47. As for U43A C68U, the self-cleavage was determined as 1.15.

As to C32A U80A, the self-cleavage was 0.37. Consider U41C A57G, for which the self-cleavage turned out to be 1. Then G36U, with 0.24; and U26G U43A, with 0.41; and U48C A57U, with 0.58. Turning to A2U C4U, the self-cleavage was 1.15. Then A5U C37U, with 0.82. Take A21G C34G: the self-cleavage stood at 0.2. Consider C27G U74C, for which the self-cleavage came to 0.41. With A56U U78G the figure was 0.58. For the variant A13C U60C, the self-cleavage was found to be 0.51. With A3G A35U the figure was 0.64; with C44G U48C, 0.1. Consider G7A U78C, for which the self-cleavage was 0.15. With A15G C39G, the self-cleavage is 0.29. With A21U A56C the figure was 0.18; with A13U U69A, 0.74. With G9A A65U the figure was 0.17; with A5U G7A, 0.22. With C11A C17U the figure was 0.09. A35C U43A: the self-cleavage stood at 1.06.

Regarding C23U A47U, the self-cleavage turned out to be 0.2.

For A18C G30A, the self-cleavage is 0.31. As for A3G A56G, the self-cleavage amounted to 0.77. With U48A U58A the figure was 0.5. Then A3G C68A, with 0.46. With C37A G52U the figure was 0.35. Consider G30A A45G, for which the self-cleavage is 0.25. With U26C G52C the figure was 0.27; with C4A U26C, 1.21; with G10C U78C, 0.17. As for C12G U76C, the self-cleavage is 0.66. With C37U U43C the figure was 0.31; with A18U U69G, 1.14; with U54C U67A, 0.48. With A15G G73A the figure was 1.19; with C29A U80C, 0.54. With U1A G36A the figure was 0.29. As for A64U U67C, the self-cleavage was found to be 0.32.

G24A U60A: the self-cleavage was found to be 0.28. As to C71G U80G, the self-cleavage was found to be 0.4.

Regarding C23U A64C, the self-cleavage is 0.09. With G16A A35G the figure was 1.02; with U31C C68A, 0.28; with A5U G16A, 1.05. Take A18G C68A: the self-cleavage was 0.21. For the variant A47U U49C, the self-cleavage was 0.46. With U54A A64U the figure was 0.37; with A5U A28G, 0.83; with A35U U66A, 0.34. With C12G C40A the figure was 0.11; with G7C A20U, 0.22. Consider C34G U49C, for which the self-cleavage stood at 0.07.

Take G9A G52C: the self-cleavage came out at 0.13. With A35G G53A the figure was 1.33. With U43A A56G the figure was 0.97. Then U1A U69A, with 0.54. As to C11A U48G, the self-cleavage worked out at 0.06. Then U60C U67A, with 0.3; and G36A A47G, with 0.34.

In the case of A3G G73A, the self-cleavage stood at 1.22. With U69A G73C, the self-cleavage worked out at 0.65. Then A5U G24U, with 0.43; and U1G A18G, with 0.61. With C17U A56G the figure was 0.47; with A13G U43A, 0.93; with C4U U25G, 0.45. With A45U G63A the figure was 0.54; with C14A U76C, 0.94.

As for A21U U54G, the self-cleavage was 0.26. Then U1C G7A, with 0.09; and C12U A35C, with 0.85. For the variant C40A U41C, the self-cleavage amounted to 0.36. For the variant C23A A45G, the self-cleavage was determined as 0.23.

For C14G U41C, the self-cleavage came out at 1.14. Then A5U A18G, with 0.87; and C59U A65G, with 0.4; and U1A A47G, with 1.01.

Regarding U26C C59A, the self-cleavage is 0.17.

G10A G55A: the self-cleavage is 0.36. Then A20G A21G, with 0.37; and A3U G7A, with 0.47; and C14A U74A, with 1.25.

Consider U51G U80C, for which the self-cleavage stood at 1.11.

Consider U31A U69G, for which the self-cleavage came to 0.27. Then C44G U67C, with 0.18; and C37A U49A, with 0.13.

In the case of U66C A75U, the self-cleavage was found to be 0.4. With A2G G33U, the self-cleavage came out at 0.3. With A28G A77G, the self-cleavage is 0.72. G33A C50G: the self-cleavage came out at 0.22. Then A57U U78A, with 1.21; and U69A U72A, with 0.33.

As for G33U U66A, the self-cleavage came to 0.16.

Regarding C37A U74C, the self-cleavage is 0.17.
